Source: patent publication US20090280138A1 (OXFORD BIOMEDICA UK, published 2009)

What was measured:
[1] = molecular target: T1, MHC class I molecule HLA-A*0301 (iTopia plate-bound monomer) (biotin (bound to streptavidin-coated plate)); test: iTopia off-rate assay, 37 C; fit R^2 0.9
T1 construct: also called A3
Description: (§1) The 9 mers were tested for Peptide Binding, Off Rate and Affinity using iTopia Epitope Discovery System in accordance with the manufacturer's instructions. Briefly, 96 well microtitre plates coated with MHC molecules representing different MHC alleles are used to identify candidate peptides. […] Determinations are performed in duplicate using an ELISA plate reader and included allele specific positive controls.
(§2) A one-phase exponential decay curve, with a plateau given equal to 0, was generated using GraphPad Prism® software, which calculated the t1/2 and goodness-of-fit, as measured by r², for each peptide.

[2] = molecular target: T2, MHC class I molecule HLA-A*0201 (iTopia plate-bound monomer) (biotin (bound to streptavidin-coated plate)); test: iTopia off-rate assay, 37 C; fit R^2 0.57
T2 construct: also called A2
Description: as §1, §2

[3] = molecular target: T3, MHC class I molecule HLA-B*0702 (iTopia plate-bound monomer) (biotin (bound to streptavidin-coated plate)); test: iTopia off-rate assay, 37 C; fit R^2 0.79
T3 construct: Commercial iTopia system; also called B7
Description: as §1, §2

[4] = molecular target: T3, MHC class I molecule HLA-B*0702 (iTopia …); test: iTopia off-rate assay, 37 C; fit R^2 0.11
Description: as §1, §2

[5] = molecular target: T2, MHC class I molecule HLA-A*0201 (iTopia …); test: iTopia off-rate assay, 37 C; fit R^2 0.49
Description: as §1, §2

[6] = molecular target: T2, MHC class I molecule HLA-A*0201 (iTopia …); test: iTopia off-rate assay, 37 C; fit R^2 0.63
Description: as §1, §2

[7] = molecular target: T3, MHC class I molecule HLA-B*0702 (iTopia …); test: iTopia off-rate assay, 37 C; fit R^2 0.84
Description: as §1, §2

[8] = molecular target: T2, MHC class I molecule HLA-A*0201 (iTopia …); test: iTopia off-rate assay, 37 C; fit R^2 0.05
Description: as §1, §2

[9] = molecular target: T3, MHC class I molecule HLA-B*0702 (iTopia …); test: iTopia off-rate assay, 37 C; fit R^2 0.15
Description: as §1, §2

[10] = molecular target: T2, MHC class I molecule HLA-A*0201 (iTopia …); test: iTopia off-rate assay, 37 C; fit R^2 0.46
Description: as §1, §2

[11] = molecular target: T2, MHC class I molecule HLA-A*0201 (iTopia …); test: iTopia off-rate assay, 37 C; fit R^2 0.68
Description: as §1, §2

[12] = molecular target: T3, MHC class I molecule HLA-B*0702 (iTopia …); test: iTopia off-rate assay, 37 C; fit R^2 0.88
Description: as §1, §2

[13] = molecular target: T2, MHC class I molecule HLA-A*0201 (iTopia …); test: iTopia off-rate assay, 37 C; fit R^2 0.89
Description: as §1, §2

[14] = molecular target: T3, MHC class I molecule HLA-B*0702 (iTopia …); test: iTopia off-rate assay, 37 C; fit R^2 0.36
Description: as §1, §2

[15] = molecular target: T4, MHC class I molecule HLA-A*0101 (iTopia plate-bound monomer) (biotin (bound to streptavidin-coated plate)); test: iTopia off-rate assay, 37 C; fit R^2 0.88
T4 construct: also called A1
Description: as §1, §2

[16] = molecular target: T2, MHC class I molecule HLA-A*0201 (iTopia …); test: iTopia off-rate assay, 37 C; fit R^2 0.95
Description: as §1, §2

[17] = molecular target: T4, MHC class I molecule HLA-A*0101 (iTopia …); test: iTopia off-rate assay, 37 C; fit R^2 0.87
Description: as §1, §2

[18] = molecular target: T2, MHC class I molecule HLA-A*0201 (iTopia …); test: iTopia off-rate assay, 37 C; fit R^2 0.91
Description: as §1, §2

[19] = molecular target: T2, MHC class I molecule HLA-A*0201 (iTopia …); test: iTopia off-rate assay, 37 C; fit R^2 0.65
Description: as §1, §2

[20] = molecular target: T3, MHC class I molecule HLA-B*0702 (iTopia …); test: iTopia off-rate assay, 37 C; fit R^2 0.26
Description: as §1, §2

[21] = molecular target: T2, MHC class I molecule HLA-A*0201 (iTopia …); test: iTopia off-rate assay, 37 C; fit R^2 0.59
Description: as §1, §2

[22] = molecular target: T3, MHC class I molecule HLA-B*0702 (iTopia …); test: iTopia off-rate assay, 37 C; fit R^2 0.75
Description: as §1, §2

[23] = molecular target: T1, MHC class I molecule HLA-A*0301 (iTopia …); test: iTopia off-rate assay, 37 C; fit R^2 0.94
Description: as §1, §2

[24] = molecular target: T2, MHC class I molecule HLA-A*0201 (iTopia …); test: iTopia off-rate assay, 37 C; fit R^2 0.6
Description: as §1, §2

[25] = molecular target: T3, MHC class I molecule HLA-B*0702 (iTopia …); test: iTopia off-rate assay, 37 C; fit R^2 0.91
Description: as §1, §2

[26] = molecular target: T2, MHC class I molecule HLA-A*0201 (iTopia …); test: iTopia off-rate assay, 37 C; fit R^2 0.98
Description: as §1, §2

[27] = molecular target: T3, MHC class I molecule HLA-B*0702 (iTopia …); test: iTopia off-rate assay, 37 C; fit R^2 0.22
Description: as §1, §2

[28] = molecular target: T2, MHC class I molecule HLA-A*0201 (iTopia …); test: iTopia off-rate assay, 37 C; fit R^2 0.66
Description: as §1, §2

[29] = molecular target: T3, MHC class I molecule HLA-B*0702 (iTopia …); test: iTopia off-rate assay, 37 C; fit R^2 0.66
Description: as §1, §2

[30] = molecular target: T1, MHC class I molecule HLA-A*0301 (iTopia …); test: iTopia off-rate assay, 37 C; fit R^2 0.95
Description: as §1, §2

[31] = molecular target: T4, MHC class I molecule HLA-A*0101 (iTopia …); test: iTopia off-rate assay, 37 C; fit R^2 0.25
Description: as §1, §2

[32] = molecular target: T2, MHC class I molecule HLA-A*0201 (iTopia …); test: iTopia off-rate assay, 37 C; fit R^2 0.33
Description: as §1, §2

[33] = molecular target: T3, MHC class I molecule HLA-B*0702 (iTopia …); test: iTopia off-rate assay, 37 C; fit R^2 0.42
Description: as §1, §2

[34] = molecular target: T2, MHC class I molecule HLA-A*0201 (iTopia …); test: iTopia off-rate assay, 37 C; fit R^2 0.9
Description: as §1, §2

[35] = molecular target: T1, MHC class I molecule HLA-A*0301 (iTopia …); test: iTopia off-rate assay, 37 C; fit R^2 0.58
Description: as §1, §2

[36] = molecular target: T3, MHC class I molecule HLA-B*0702 (iTopia …); test: iTopia off-rate assay, 37 C; fit R^2 0.02
Description: as §1, §2

[37] = molecular target: T2, MHC class I molecule HLA-A*0201 (iTopia …); test: iTopia off-rate assay, 37 C; fit R^2 0.67
Description: as §1, §2

[38] = molecular target: T2, MHC class I molecule HLA-A*0201 (iTopia …); test: iTopia off-rate assay, 37 C; fit R^2 0.74
Description: as §1, §2

[39] = molecular target: T1, MHC class I molecule HLA-A*0301 (iTopia …); test: iTopia off-rate assay, 37 C; fit R^2 0.88
Description: as §1, §2

[40] = molecular target: T4, MHC class I molecule HLA-A*0101 (iTopia …); test: iTopia off-rate assay, 37 C; fit R^2 0.97
Description: as §1, §2

[41] = molecular target: T3, MHC class I molecule HLA-B*0702 (iTopia …); test: iTopia off-rate assay, 37 C; fit R^2 0.23
Description: as §1, §2

[42] = molecular target: T3, MHC class I molecule HLA-B*0702 (iTopia …); test: iTopia off-rate assay, 37 C; fit R^2 0.67
Description: as §1, §2

[43] = molecular target: T2, MHC class I molecule HLA-A*0201 (iTopia …); test: iTopia off-rate assay, 37 C; fit R^2 0.87
Description: as §1, §2

B1: 5T4 9-mer peptide 188 YLNRKGIKK (peptide)
peptide: YLNRKGIKK
notes: also called Peptide No 188
t½ half life [1]: 0.7 h
t½ half life [2]: 6.5 h
t½ half life [3]: 3.3 h

B2: 5T4 9-mer peptide 58 PPLAELAAL (peptide)
peptide: PPLAELAAL
notes: also called Peptide No 58
t½ half life [4]: 3 h
t½ half life [5]: 4.6 h

B3: 5T4 9-mer peptide 52 LAVLPAGAF (peptide)
peptide: LAVLPAGAF
notes: also called Peptide No 52
t½ half life [6]: 3.6 h
t½ half life [7]: 0.3 h

B4: 5T4 9-mer peptide 191 IKKWMHNIR (peptide)
peptide: IKKWMHNIR
notes: also called Peptide No 191
t½ half life [8]: 14.6 h

B5: 5T4 9-mer peptide 7 DGRLRLARL (peptide)
peptide: DGRLRLARL
notes: also called Peptide No 7
t½ half life [9]: 2.6 h

B6: 5T4 9-mer peptide 90 ILNHIVPPE (peptide)
peptide: ILNHIVPPE
notes: also called Peptide No 90
t½ half life [10]: 13 h

B7: 5T4 9-mer peptide 195 RDACRDHME (peptide)
peptide: RDACRDHME
notes: also called Peptide No 195
t½ half life [11]: 3 h

B8: 5T4 9-mer peptide 71 LPSLRQLDL (peptide)
peptide: LPSLRQLDL
notes: also called Peptide No 71
t½ half life [12]: 3.1 h
t½ half life [13]: 1.4 h

B9: 5T4 9-mer peptide 204 ADPRLTNLS (peptide)
peptide: ADPRLTNLS
notes: also called Peptide No 204
t½ half life [14]: 3.1 h

B10: 5T4 9-mer peptide 21 FSSSAPFLA (peptide)
peptide: FSSSAPFLA
notes: also called Peptide No 21
t½ half life [15]: 0.2 h
t½ half life [16]: 0.3 h

B11: 5T4 9-mer peptide 43 VPTDLPAYV (peptide)
peptide: VPTDLPAYV
notes: also called Peptide No 43
t½ half life [17]: 1.8 h
t½ half life [18]: 1.1 h

B12: 5T4 9-mer peptide 20 SSFSSSAPF (peptide)
peptide: SSFSSSAPF
notes: also called Peptide No 20
t½ half life [19]: 0.4 h

B13: 5T4 9-mer peptide 86 APSPLVELI (peptide)
peptide: APSPLVELI
notes: also called Peptide No 86
t½ half life [20]: 1.6 h

B14: 5T4 9-mer peptide 65 RLDEVRAGA (peptide)
peptide: RLDEVRAGA
notes: also called Peptide No 65
t½ half life [21]: 9.7 h
t½ half life [22]: 0.2 h
t½ half life [23]: 0.2 h

B15: 5T4 9-mer peptide 193 MHNIRDACR (peptide)
peptide: MHNIRDACR
notes: also called Peptide No 193
t½ half life [24]: 5.3 h

B16: 5T4 9-mer peptide 55 GAFARRPPL (peptide)
peptide: GAFARRPPL
notes: also called Peptide No 55
t½ half life [25]: 1.3 h
t½ half life [26]: 1.9 h

B17: 5T4 9-mer peptide 2 GGCSRGPAA (peptide)
peptide: GGCSRGPAA
notes: also called Peptide No 2
t½ half life [27]: 1.3 h
t½ half life [28]: 0.5 h

B18: 5T4 9-mer peptide 8 RLRLARLAL (peptide)
peptide: RLRLARLAL
notes: also called Peptide No 8
t½ half life [21]: 7.2 h
t½ half life [29]: 3.1 h
t½ half life [30]: 0.2 h

B19: 5T4 9-mer peptide 59 LAELAALNL (peptide)
peptide: LAELAALNL
notes: also called Peptide No 59
t½ half life [31]: 2.5 h
t½ half life [32]: 13.1 h
t½ half life [33]: 3.2 h

B20: 5T4 9-mer peptide 53 VLPAGAFAR (peptide)
peptide: VLPAGAFAR
notes: also called Peptide No 53
t½ half life [34]: 2.2 h
t½ half life [35]: 0.5 h

B21: 5T4 9-mer peptide 23 APFLASAVS (peptide)
peptide: APFLASAVS
notes: also called Peptide No 23
t½ half life [36]: 2.6 h
t½ half life [37]: 1.6 h

B22: 5T4 9-mer peptide 198 HMEGYHYRY (peptide)
peptide: HMEGYHYRY
notes: also called Peptide No 198
t½ half life [38]: 6.3 h
t½ half life [39]: 1.7 h
t½ half life [40]: 1.3 h

B23: 5T4 9-mer peptide 17 SPTSSASSF (peptide)
peptide: SPTSSASSF
notes: also called Peptide No 17
t½ half life [41]: 2.6 h

B24: 5T4 9-mer peptide 84 ASVSAPSPL (peptide)
peptide: ASVSAPSPL
notes: also called Peptide No 84
t½ half life [42]: 6 min
t½ half life [43]: 0.4 h
